Source: patent US20220106382A1

Assays:
[1] = target: RLuc8β2AR (β2-adrenergic receptor fused to RLuc8, BRET donor construct); assay: BRET recruitment assay, RLuc8β2AR and GFP-arrestin-3 in co-transfected cells; the concentration varied is that of isoproterenol
[2] = target: RLuc8β2AR (β2-adrenergic receptor fused to RLuc8, BRET donor construct); assay: BRET recruitment assay in co-transfected cells; the concentration is that of isoproterenol
[3] = target: RLuc8β2AR (β2-adrenergic receptor fused to RLuc8, BRET donor construct); assay: BRET recruitment assay in co-transfected cells, isoproterenol-induced
[4] = target: RLuc8β2AR (β2-adrenergic receptor fused to RLuc8, BRET donor construct); assay: BRET recruitment assay, RLuc8β2AR and GFP-arrestin-3 mutant in co-transfected cells, isoproterenol-induced
[5] = target: RLuc8β2AR (β2-adrenergic receptor fused to RLuc8, BRET donor construct); assay: BRET recruitment assay, RLuc8β2AR and GFP-arrestin-3 mutant in co-transfected cells; the concentration varied is that of isoproterenol

GFP-arrestin-3 WT (human wild-type arrestin-3, SEQ ID NO: 1), sequence (chain): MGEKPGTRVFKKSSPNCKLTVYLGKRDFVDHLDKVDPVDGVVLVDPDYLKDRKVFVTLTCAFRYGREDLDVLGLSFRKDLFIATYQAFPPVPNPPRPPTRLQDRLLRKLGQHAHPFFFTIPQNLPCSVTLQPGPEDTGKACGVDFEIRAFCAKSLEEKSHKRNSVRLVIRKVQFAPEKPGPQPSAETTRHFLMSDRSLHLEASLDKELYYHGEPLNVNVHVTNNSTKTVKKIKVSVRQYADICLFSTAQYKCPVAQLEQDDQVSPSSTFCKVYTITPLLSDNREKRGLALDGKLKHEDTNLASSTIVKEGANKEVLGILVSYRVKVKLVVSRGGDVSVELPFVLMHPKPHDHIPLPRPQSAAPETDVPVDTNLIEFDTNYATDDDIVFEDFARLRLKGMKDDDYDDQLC

Potency (pEC50 of isoproterenol for recruitment of the arrestin to β2AR) [1] [pEC50]	potency as concentration of isoproterenol for half of the total recruitment of the arrestin to β2AR [2] [nM]	increase of efficacy in arrestin recruitment compared to wild-type arrestin-3 [3] [%]	Efficacy (Emax) in %, normalized to WT [4] [%]	Potency (pEC50 of isoproterenol for recruitment of the arrestin to β2AR) [5] [pEC50]	Molecule
6.8	158				GFP-arrestin-3 WT (human wild-type arrestin-3, SEQ ID NO: 1)
		30	132	7.1	GFP-arrestin-3 double mutant A (SEQ ID NO: 2): T299A + I386A
			89.2	7.2	GFP-arrestin-3 triple mutant D (SEQ ID NO: 5): T299A + I386A + R393A (protein) MGEKPGTRVFKKSSPNCKLTVYLGKRDFVDHLDKVDPVDGVVLVDPDYLKDRKVFVTLTCAFRYGREDLDVLGLSFRKDLFIATYQAFPPVPNPPRPPTRLQDRLLRKLGQHAHPFFFTIPQNLPCSVTLQPGPEDTGKACGVDFEIRAFCAKSLEEKSHKRNSVRLVIRKVQFAPEKPGPQPSAETTRHFLMSDRSLHLEASLDKELYYHGEPLNVNVHVTNNSTKTVKKIKVSVRQYADICLFSTAQYKCPVAQLEQDDQVSPSSTFCKVYTITPLLSDNREKRGLALDGKLKHEDANLASSTIVKEGANKEVLGILVSYRVKVKLVVSRGGDVSVELPFVLMHPKPHDHIPLPRPQSAAPETDVPVDTNLIEFDTNYATDDDAVFEDFAALRLKGMKDDDYDDQLC
			109	7.2	GFP-arrestin-3 triple mutant C (SEQ ID NO: 4): T299A + I386A + D298A (protein) MGEKPGTRVFKKSSPNCKLTVYLGKRDFVDHLDKVDPVDGVVLVDPDYLKDRKVFVTLTCAFRYGREDLDVLGLSFRKDLFIATYQAFPPVPNPPRPPTRLQDRLLRKLGQHAHPFFFTIPQNLPCSVTLQPGPEDTGKACGVDFEIRAFCAKSLEEKSHKRNSVRLVIRKVQFAPEKPGPQPSAETTRHFLMSDRSLHLEASLDKELYYHGEPLNVNVHVTNNSTKTVKKIKVSVRQYADICLFSTAQYKCPVAQLEQDDQVSPSSTFCKVYTITPLLSDNREKRGLALDGKLKHEAANLASSTIVKEGANKEVLGILVSYRVKVKLVVSRGGDVSVELPFVLMHPKPHDHIPLPRPQSAAPETDVPVDTNLIEFDTNYATDDDAVFEDFARLRLKGMKDDDYDDQLC
	50.1		103	7.3	GFP-arrestin-3 triple mutant B (SEQ ID NO: 3): T299A + I386A + R166A (protein) MGEKPGTRVFKKSSPNCKLTVYLGKRDFVDHLDKVDPVDGVVLVDPDYLKDRKVFVTLTCAFRYGREDLDVLGLSFRKDLFIATYQAFPPVPNPPRPPTRLQDRLLRKLGQHAHPFFFTIPQNLPCSVTLQPGPEDTGKACGVDFEIRAFCAKSLEEKSHKRNSVALVIRKVQFAPEKPGPQPSAETTRHFLMSDRSLHLEASLDKELYYHGEPLNVNVHVTNNSTKTVKKIKVSVRQYADICLFSTAQYKCPVAQLEQDDQVSPSSTFCKVYTITPLLSDNREKRGLALDGKLKHEDANLASSTIVKEGANKEVLGILVSYRVKVKLVVSRGGDVSVELPFVLMHPKPHDHIPLPRPQSAAPETDVPVDTNLIEFDTNYATDDDAVFEDFARLRLKGMKDDDYDDQLC
